Experimental data from patent US8563503B2, “Antibiotic, its nucleotide sequence, methods of construction and uses thereof” (Protein Design Lab. Ltd., priority 2011, dated 2013).

Tests used:
[1] = tested on: Staphylococcus epidermidis reference culture No. 26069; experiment: Bacteria growth curve (A595 nm cloudiness), Staphylococcus epidermidis; type: cell-based; conditions: drug 2 μg/ml, 37° C., A595 nm per hour
Method: The bacterium is Staphylococcus epidermidis reference culture No. 26069, purchased from China Center of Culture Collection (National Institute for the Control of Pharmaceutical and Biological Products). 3 microliter of bacterium solution (10^6 CFU/ml level bacterium amount) was added into 10 ml culture solution containing 1% peptone, 1% NaCl, 0.5% yeast extract, 0.5% glucose and 0.1% K2HPO4. Totally four groups were prepared. The first group as control was added 0.3M NaCl+50 mM boric acid buffer fluid by the same volume with that of antibiosis polypeptide liquid added in any experimental groups, the second group was added penicillin G sodium by 2 μg/ml, PMC-SA1 and PMC-SE was added in the other experimental groups by 2 μg/ml (0.3 M NaCl+50 mM boric acid buffer fluid was preservative fluid).
The solution of above groups was put into 100 ml conical flask, 200 rpm, grew at 37° C. 100 μl was sampled per hour, and added onto 96-pore ELISA plate to measure bacteria grown cloudiness by spectrophotometer (A595 nm) color comparison. The bacteria growth curve was drawn up to compare the bacteriostasis efficacy of the novel antibiotics.

[2] = tested on: Enterococcus ATCC 700802; experiment: MIC against the infecting strain (Table 2); type: cell-based, Enterococcus faecalis; conditions: ATCC700802
In short: (§1)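 Agar doubling dilution on Mueller-Hinton agar plates holding serial drug concentrations; inocula of 10^5 CFU/ml per spot applied by multipoint inoculator. Enterococcus grown in MH medium with 5-10% defibrinated rabbit blood at 37° C, 5% CO2. Plates read after 18-24 h at 37° C; MIC = lowest concentration with no growth.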

[3] = tested on: methicillin-resistant Staphylococcus aureus ATCC BAA-42; experiment: Bacteria growth curve (A595 nm), comparison of the novel antibiotics; type: cell-based; conditions: drug 5 μg/ml, 37° C., A595 nm per hour
In short: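 MRSA ATCC BAA-42 (10^6 CFU/ml inoculum level) grown in peptone/NaCl/yeast extract/glucose/K2HPO4 broth at 37 °C, 200 rpm, with each polypeptide at 5 μg/ml; buffer (0.3 M NaCl + 50 mM boric acid) and penicillin G 5 μg/ml as controls. Turbidity (A595 nm) sampled hourly for growth curves.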

[4] = tested on: Staphylococcus aureus MRSA BAA-42; experiment: MIC against the infecting strain (Table 2); type: cell-based; conditions: Staphylococcus aureus MRSA BAA-42
In short: as §1

[5] = tested on: Staphylococcus aureus ATCC 29213; experiment: MIC against the infecting strain (Table 2); type: cell-based; conditions: ATCC29213
In short: as §1

[6] = tested on: E. coli 02-1-65; experiment: MIC against the infecting strain (Table 2); type: cell-based; conditions: E. coli 02-1-65
In short: as §1

[7] = tested on: Staphylococcus epidermidis (MRSE); experiment: MIC by Agar Doubling Dilution Method, clinical isolates; type: cell-based; conditions: MRSE clinical strains
In short: as §1

[8] = tested on: E. coli; experiment: as above; type: cell-based; conditions: E. coli clinical strains
In short: as §1

[9] = tested on: Baumanii; experiment: as above; type: cell-based; conditions: Baumanii clinical strains
In short: as §1

[10] = tested on: Staphylococcus aureus (MSSA); experiment: as above; type: cell-based; conditions: MSSA clinical strains
In short: as §1

[11] = tested on: Staphylococcus epidermidis (MSSE strain); experiment: as above; type: cell-based; conditions: MSSE clinical strains
In short: as §1

[12] = tested on: Staphylococcus aureus (MRSA); experiment: as above; type: cell-based
In short: as §1

[13] = Immunization of mice, valence of mouse sera by indirect ELISA; type: in vivo; conditions: from valence of mouse sera
Method: Allosteric peptide of Colicin Ia, i.e. Ia′, PMC-SA1 obtained in embodiment 1, wild-type colicin Ia and the anti-Staphylococcus aureus peptide (ZL01128836.1) which invented by the present inventor were taken respectively to immunize mice. After admixturing with the adjuvant, the above proteins were interaperitonea injected respectively to the mice by 50 μg per mouse for one time of foundational quantity and 50 μg per mouse for one time of additional quantity totally 5 times by two weeks interval. Indirect ELISA detection method was applied to detect the valence of mouse sera (Xiao Yi, et. al., Preparation and preliminary characterization of monoclonal antibodies against Pheromonicin-and-Staphylococcus aureus, Shanxi Medical Journal, 35(1): 6-7, 32 (2006)). The valence of mouse sera which immunized by wild type colicin Ia as well as anti-Staphylococcus aureus polypeptide (ZL01128836.1) was 10^−4 to 10^−5, while the valence of mouse sera which immunized by allosteric peptide of colicin Ia and PMC-SA1 was 10^−2 to 10^−3.

B1: PMC-SA1: Staphylococcus aureus pheromone AgrD I linked to C-terminus of allosteric colicin Ia′; SEQ ID NO. 13; plasmid pBHC-SA1 (protein)
chain: SDPVRITNPAAESLGYDSDGREIMGVDIYLNPPRVDVFKGTPPAWSSFGNKTIWGGNEWVDDSPTRSDIEKRDKEITAYKNTLSAQQKENENKRTEAGKRLSAAIAAREKDENTLKTLRAGNADAADITRQEFRLLQAELREYGFRTEIAGYDALRLHTESRMLFADADSLRISPREARSLIEQAEKRQKDAQNADKKAADMLAEYERRKGILDTRLSELEKNGGAALAVLDAQQARLLGQQTRNDRAISEARNKLSSVTESLNTARNALTRAEQQLTQQKNTPDGKTIVSPEKFPGRSSTNHSIVVSGDPRFAGTIKITTSAVIDNRANLNYLLSHSGLDYKRNILNDRNPVVTEDVEGDKKIYNAEVAEWDKLRQRLLDARNKITSAESAVNSARNNLSARTNEQKHANDALNALLKEKENIRNQLSGINQKIAEEKRKQDELKATKDAINFTTEFLKSVSEKYGAKAEQLAREMAGQAKGKKIRNVEEALKTYEKYRADINKKINAKDRAAIAAALESVKLSDISSNLNRFSRGLGYAGKFTSLADWITEFGKAVRTENWRPLFVKTETIIAGNAATALVALVFSILTGSALGIIGYGLLMAVTGALIDESLVEKANKFWGIYSTCDFIM
modifications: The peptide of PMC-SA1
notes: Staphylococcus aureus pheromone AgrD I linked to C-terminus of allosteric colicin Ia′; 13; plasmid pBHC-SA1
In the case of B1, the “growth of Staphylococcus epidermidis (bacteria growth curve)” value [1] is reported as “partly restrained”, the MIC [2] is reported as 16 µg/mL and the “bacteriostasis effect on growth of methicillin-resistant Staphylococcus aureus (bacteria growth curve)” value [3] is reported as “the best”. It also gave an MIC [4] of 0.5 µg/mL, an MIC [5] of 0.5 µg/mL and an MIC [6] of 1 µg/mL. It also gave an MIC50 [7] of over 64 µg/mL, an MIC90 [7] of over 64 µg/mL and an MIC50 [8] of 16 µg/mL. For the same molecule, the MIC90 [8] was over 32 µg/mL, the MIC50 [9] was 32 µg/mL and the MIC90 [9] was over 64 µg/mL. For the same molecule, the MIC50 [10] was 0.5 µg/mL, the MIC90 [10] was 16 µg/mL and the MIC50 [11] was 1 µg/mL. The MIC90 [11] was 32 µg/mL, the “Scope of MIC” value [11] was 0.25 to 64 µg/mL and the MIC50 ([12]; MRSA clinical strains) was 8 to 16 µg/mL. The MIC90 ([12]; MRSA clinical strains) was over 16 µg/mL, the “Scope of MIC” value ([12]; MRSA clinical strains) was under 0.25 to 64 µg/mL and the “in vitro antibacterial activity relative to oxacillin, standardized by same drug molecular number in unit volume” value ([12]; Staphylococcus aureus, MRSA) was 1,240 times. For the same molecule, the “in vitro antibacterial activity relative to vancomycin, standardized by same drug molecular number in unit volume” value ([12]; Staphylococcus aureus, MRSA) was “three” and the “possibility of causing host allergic reaction relative to anti-Staphylococcus aureus polypeptide” value [13] was “lower one to two order of magnitude”.
